# Data taken from US20220402983A1 (Janssen / Centocor, published 2022).
# *1 amine or outer side, *2 acyl side, *3 side chain or, on linkers, in order; H or OH if unused. Bridges are numbered along the chain shown (N, C = ends). Primed or numbered codes have the meaning given here. Where no end group is shown, it is not given here. [ ]: non-standard residue; d: D form. The star is where a group is joined. Phe(4-OMe)″ = 4-methoxyphenylalanine, COc1ccc(C[C@H](N[*:1])C(=O)[*:2])cc1; Phe(4-CONH2) = NC(=O)c1ccc(C[C@H](N)C(=O)O)cc1; αMeW = C[C@](N)(Cc1c[nH]c2ccccc12)C(=O)O; FPrpTriazoleMe_Acid = not defined here; 2Nal = N[C@@H](Cc1ccc2ccccc2c1)C(=O)O; AEF = NCCOc1ccc(C[C@H](N)C(=O)O)cc1; αMeF = C[C@](N)(Cc1ccccc1)C(=O)O; αMeE = C[C@](N)(CCC(=O)O)C(=O)O; Pen = CC(C)(S)[C@H](N)C(=O)O; Ac6c = NC1(C(=O)O)CCCCC1; Thp = NC1(C(=O)O)CCOCC1; Abu = CC[C@H](N)C(=O)O; pr = not defined here; Aib = CC(C)(N)C(=O)O; Piv = CC(C)(C)C(=O)*; Alloc = C=CCOC(=O)*; Propyl = CCC*
# T1: human IL-23R (interleukin-23 receptor) (human, UniProt Q5VWK5 24-629)
# T1 sequence (looked up): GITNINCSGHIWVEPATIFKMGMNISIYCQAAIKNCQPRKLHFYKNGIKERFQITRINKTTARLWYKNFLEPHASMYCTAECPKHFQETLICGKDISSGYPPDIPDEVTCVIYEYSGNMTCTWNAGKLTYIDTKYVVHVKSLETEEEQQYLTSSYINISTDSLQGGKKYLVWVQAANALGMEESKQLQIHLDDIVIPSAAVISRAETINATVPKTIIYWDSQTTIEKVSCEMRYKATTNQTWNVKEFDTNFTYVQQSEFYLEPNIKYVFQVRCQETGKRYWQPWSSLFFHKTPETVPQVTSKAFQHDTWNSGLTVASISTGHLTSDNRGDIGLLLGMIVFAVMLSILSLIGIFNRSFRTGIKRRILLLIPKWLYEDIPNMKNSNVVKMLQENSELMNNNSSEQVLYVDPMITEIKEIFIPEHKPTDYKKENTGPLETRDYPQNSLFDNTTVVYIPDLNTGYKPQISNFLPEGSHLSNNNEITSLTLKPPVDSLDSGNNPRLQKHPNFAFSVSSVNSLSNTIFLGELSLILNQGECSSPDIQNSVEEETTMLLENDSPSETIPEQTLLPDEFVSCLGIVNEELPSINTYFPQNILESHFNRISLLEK
# Biological target: T1, human IL-23R (interleukin-23 receptor)
# Assay: cell-based or functional assay
row,Binder,PBMC pSTAT3 IC50 (nM)
1,[dR]CQTWQ[Pen][AEF][2Nal][Thp]EN[αMeF]-NH2 (disulfide 2-7; not fully specified (N-terminus)) [Compound No. 23],17 nM
2,FPrpTriazoleMe_Acid-[dR][Abu]QTWQC[Phe(4-OMe)″][2Nal][Thp]EN[Thp]-NH2 (thioether 2-7; reading uncertain) [Compound No. 25],21 nM
3,Ac-[dR][Abu]QTWQC[AEF][2Nal][Ac6c][αMeE]NF[Aib]-NH2 (thioether 2-7) [Compound No. 28],23 nM
4,pr-[dR][Pen]QTWQ[Pen][AEF][2Nal][Thp]K(Piv)NF-NH2 (disulfide 2-7; reading uncertain) [Compound No. 26],8.2 nM
5,Ac-[dR][Abu]QTWQC[AEF][2Nal][Thp]QN[αMeF]-NH2 (thioether 2-7) [Compound No. 30],25 nM
6,Ac-[dR][Abu]QTWQC[AEF][2Nal][Ac6c][αMeE]N[αMeF]-NH2 (thioether 2-7) [Compound No. 29],30 nM
7,Ac-[dR][Abu]QTWQC[AEF][2Nal][Ac6c][αMeE]NF-NH2 (thioether 2-7) [Compound No. 27],11 nM

# Further lines, results first:
row,PBMC pSTAT3 IC50 (nM),Binder
1,4.3 nM,Ac-[dR][Abu]QTWQC[AEF][2Nal][Ac6c][αMeE]N[Thp]-NH2 (thioether 2-7) [Compound No. 38]
2,5.8 nM,Ac-[dR][Abu]QTWQC[AEF][2Nal][Thp][αMeE]N[Phe(4-CONH2)]-NH2 (thioether 2-7) [Compound No. 34]
3,14 nM,Ac-[dR][Abu]QTWQC[AEF][2Nal][Thp][αMeE]N[αMePhe(4-F)]-NH2 (thioether 2-7) [Compound No. 36]
4,19 nM,Ac-[dR][Abu]QTWQC[AEF][2Nal][Thp][αMeE]N[1(2Nal)]-NH2 (thioether 2-7) [Compound No. 32]
5,92 nM,Ac-[dR][Abu]QTWQ[Pen][AEF][2Nal][Ac6c][αMeE]N[Thp]-NH2 (thioether 2-7) [Compound No. 39]
6,11 nM,Propyl-[dR][Pen]QTWQ[Pen][AEF][2Nal][Thp]K(Alloc)NF-NH2 (disulfide 2-7; SMILES C=CCOC(=O)NCCCC[C@H](NC(=O)C1(NC(=O)[C@H](Cc2ccc3ccccc3c2)NC(=O)[C@H](Cc2ccc(OCCN)cc2)NC(=O)[C@H]2NC(=O)[C@H](CCC(N)=O)NC(=O)[C@H](Cc3c[nH]c4ccccc34)NC(=O)[C@H]([C@@H](C)O)NC(=O)[C@H](CCC(N)=O)NC(=O)[C@@H](NC(=O)[C@@H](CCCNC(=N)N)NCCC)C(C)(C)SSC2(C)C)CCOCC1)C(=O)N[C@@H](CC(N)=O)C(=O)N[C@@H](Cc1ccccc1)C(N)=O) [Compound No. 33]
7,25 nM,Ac-[dR][Abu]QTWQC[AEF][2Nal][Thp][αMeE]N[2Nal]-NH2 (thioether 2-7) [Compound No. 35]
8,11 nM,Ac-[dR][Abu]QTWQC[AEF][2Nal][Thp][αMeE]N[Thp]-NH2 (thioether 2-7) [Compound No. 37]
9,16 nM,Ac-[dR][Abu]QTWQC[AEF][2Nal][Thp][αMeE]N[αMeW]-NH2 (thioether 2-7) [Compound No. 31]
